According to patent US11851478:

B1: CHKV-24 (antibody, V domains shown)
VH: QVQLVESGGGVVQPGKSLRLSCAASGFTFRNYGMHWVRQAPGKGLDWVALISYDGTHKYYKDSLKGRFTISRDNFQNTVDLQINSLRPDDTAVYYCAKELATSGVVEPLDSWGQGTLVTVSS
VL: EIVLTQSPGTLSLSPGERATLSCRASQSLVSSYFGWYQQKRGQSPRLLIYAASTRATGIPDRFSGSGSGTDFTLTISRLEPEDFAVYYCQQYGNTPFTFGGGTKVEIK
B2: CHKV-31 (antibody, V domains shown)
VH: EVQLVESGGGLVQPGGSLRLSCAASGFTFSNYAMSWVRQAPGKGLEWVSGISGSGRTTYYTDSVKGRFNISRDNTKNTLFLQMNSLRAEDTAVYYCVKDRAGWFGNYFDYWGQGTLVTVSS
VL: DIQMTQSPSSLSASVGDRVTITCRASQGISNYLAWFQQKPGKAPKSLIYAASSLQSGVPSKFSGSRSGTNFTLTISSLQPEDFATYYCQQYNTYPPTFGQGTTVEIK
B3: CHKV-50 (antibody, V domains shown)
VH: EVQLVESGGGLVQPGRSLRLSCAASGFTFDDYAMHWVRQAPGKGLEWVSGISWNSGFIGYADSVKGRFTISRDNAKNSLYLQMNSLRAEDTALYYCAKDLGRAYSSGWYLFDYWGQGTLVTVSS
VL: SYVLTQPPSVSVAPGKTARITCGGNNIGSKSVHWYQQLPGQAPVLVVYDDSDRPSGIPERFSGSNSGYTATLIISRVEAGDEADYYCQVWDSTSDHACVFGPGTKVTVL
B4: CHKV-35 (antibody, V domains shown)
VH: EVQLVESGGGLVPPGGSLRVSCAASGFTLRSYVMAWVRQAPGKGLEWVSGISGDGDHTYYADSVKGRFTISRDNSKNTLYLQMHSLRAEDTALYYCVKDWGIRGIYYPSGMDVWGQGTTVIVSS
VL: SLELAQPPSVSVSPGQTARITCSGDGLPQAYAYWYQKKPGQAPVPLIYKDTERPSGIPERFSGSSSGTTVTLTISGVQAEDEADYYCQSADSIGTNVIFGGGTKLTVL
B5: CHKV-27 (antibody, V domains shown)
VH: QVQLVQSGAEVKKPGASVKVSCKPSGYNFIDYAMHWVRQAPGQRLEWMGWINAANDNREYSQKFQGRVTLTRDTSATTAYMELSSLTFEDTAVYYCARDRGTMVRGVGGWFDPWGQGTLVTVSS
VL: SYVLTQPPSVSVAPGETARITCGGNNIGSKSVHWYQQKPVQAPVVVVYDDSDRPSGIPERFSGSNSGNTATLTISRVEAGDEADYYCQVWDSSSNHPVFGGGTKVAVL
B6: CHKV-48 (antibody, V domains shown)
VH: QVQLQESGPGLVKPSQTLSLTCAVSGGSISSGGYSWSWIRQPPGKGLEWIGYIYYSGSTYYNPSLKSRLTISMDTSKNHFSLKLSSVTAADTAVYYCATDYCSSTSCNTGAPVNWGQGTLVTVSS
VL: DIQLTQSPSFLSASVGDRVTITCRASQGISSYLAWYQQKPGKAPKLLINAASTLQSGVPSRFSGSGSGTEFTLTISSLQPEDFATYYCQQFNAYPYTFGQGTKLEIK
B7: CHKV-29 (antibody, V domains shown)
VH: EVQLVESGGVVVQPGGSLRLSCAASGFNFDDYTMHWVRQAPGKGLEWVSLITWDGLSTYYADSMKGRFTISRDNSKDSLYLQMDSLRTEDTAFYYCVRDMGPGAVHFYFYGMDVWGQGTLVTVSS
VL: QSALTQPASVSGSPGQSITISCTGTSSDVGNYNLVSWYQQHPGKVPKLIIYEVSKRPSGISKRFSASKSGNTASLTISGLQAEDEADYYCCSYAGSSGVFGAGTKLTVL
B8: CHKV-32 (antibody, V domains shown)
VH: QVQLVQSGAEVKKPGASVKVSCKASGYTFTTFAMHWVRQAPGQGLECMGWINTANGYTKYSQKFQGRVTITSDTSASTASMELSSLTSKDTAVYYCARVQDFGHYEGGYGYWGQGTLVTVSS
VL: QSVLTQPPSVSGAPGQRVIISCTGSSSNIGAGYDVHWYQQLPGTAPKLLIYGNSYRPSGVPDRFSGSRSGTSASLAITGLQAEDEADYYCQSHDSSLNDFNVFGSGTKVTVL
B9: CHKV-53 (antibody, V domains shown)
VH: QLQLQESGPGLVKPSETLSLTCTVSGGSISSTSHYWGWIRQPPGKGLEWIGNIYYSGSTYYKSSLKSRVAISVDTSKNQFSLKLSSVTAADTAVYFCARVVVGGYYDNRGYYRGPPTPLYYFDYWGQGTLVTVSS
VL: DIQMTQSPSSVSASVGDRVTISCRASPGISTWLAWYQQKPGKAPKLLIYAVSSLQSGVPSRFSGSGSGTDFTLTISSLQPEDFATYYCQQANSLSWTFGQGTKVEIK

Each binder was assayed against Chikungunya virus (CHIKV), infectious virus of the focus reduction neutralization test (Chikungunya virus) (assay: cell-based or functional assay).

Going from B1 to B2, the IC50 FRNT* (ng/mL) against CHIKV rises from 4 ng/mL to 684 ng/mL (170-fold).

Going from B3 to B4, the IC50 FRNT* (ng/mL) against CHIKV falls from 2270 ng/mL to 11 ng/mL (210-fold).

Going from B5 to B6, the IC50 FRNT* (ng/mL) against CHIKV rises from 17 ng/mL to 37 ng/mL (2.2-fold).

B7 and B8 are within 1.5-fold of each other in IC50 FRNT* (ng/mL) against CHIKV: 86 ng/mL for the first, 81 ng/mL for the second.

B9 gave an IC50 FRNT* (ng/mL) against CHIKV of 319 ng/mL.
